Experimental findings from article PMC7642679 are described below.

Test in all cases: SEC
Background: SEC sorts molecules by how far they enter the pores of the column.

For assay [1], the target named is spike-6P D614G with the RBD replacement R408T (SARS-CoV-2).
Assay [2] deals with spike-6P (HexaPro) SARS-CoV-2 spike protein construct (SARS-CoV-2).
Assay [3] deals with spike-6P D614G with the RBD replacement A419V (SARS-CoV-2).
Assay [4] deals with spike-6P D614G with the RBD replacement G446V (SARS-CoV-2).
Assay [5] deals with spike-6P with the D614G substitution (SARS-CoV-2).
Assay [6] has as its target spike-6P D614G with the RBD replacement F338L (SARS-CoV-2).
For assay [7], the target named is spike-6P D614G with the RBD replacement A522V (SARS-CoV-2).
In assay [8] the target is spike-6P D614G with the RBD replacement E484Q (SARS-CoV-2).
In assay [9] the target is spike-6P D614G with the RBD replacement S373P (SARS-CoV-2).

“spike-6P D614G with the RBD replacement R408T” had a stoichiometry N in assay [1] of 3.
For “spike-6P (HexaPro) SARS-CoV-2 spike protein construct”, the stoichiometry N in assay [2] was 3.
The substance “spike-6P D614G with the RBD replacement A419V” registered a stoichiometry N in assay [3] of 3.
As for “spike-6P D614G with the RBD replacement G446V”, the stoichiometry N in assay [4] is 3.
spike-6P with the D614G substitution: the stoichiometry N in assay [5] was 3.
Substance “spike-6P D614G with the RBD replacement F338L” gave a stoichiometry N in assay [6] of 3.
In assay [7], “spike-6P D614G with the RBD replacement A522V” returned a stoichiometry N of 3.
Consider “spike-6P D614G with the RBD replacement E484Q”, for which, in assay [8], the stoichiometry N worked out at 3.
In assay [9], “spike-6P D614G with the RBD replacement S373P” returned a stoichiometry N of 3.

Usually stoichiometry N stands for the number of molecules, sites or subunits per partner or assembly.
